# Test system: Escherichia coli TOP10
# Assay: shrunken log2 fold change of peptide-encoding DNA abundance (4.5 h post-induction vs induction); higher = less antimicrobial activity (less host growth inhibition)
# Conditions: time post-induction: 4.5 h; library: site-saturation at positions 5, 18, 19, 20
# 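Also: peptides expressed intracellularly from a pBAD plasmid library in pooled LB shake-flask culture, induced with 0.3% L-arabinose, DNA abundance read by NGS, three biological replicates, DESeq2 with apeglm shrinkage.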
row,Sequence,shrunken log2 fold change
1,RRIRVRPPRLPRPRPRPVSVPRP,0.0195
2,RRIRGRPPRLPRPRPRPFHVPRP,-0.0412
3,RRIRTRPPRLPRPRPRPLHEPRP,-0.191
4,RRIRWRPPRLPRPRPRPWYGPRP,-0.34
5,RRIRIRPPRLPRPRPRPWGGPRP,0.297
6,RRIRVRPPRLPRPRPRPLLDPRP,0.157
7,RRIRYRPPRLPRPRPRPPLEPRP,0.119
8,RRIRRRPPRLPRPRPRPTKPPRP,0.541
9,RRIRMRPPRLPRPRPRPPFPPRP,0.671
10,RRIRARPPRLPRPRPRPKTQPRP,0.0119
11,RRIRARPPRLPRPRPRPCVHPRP,1.06
12,RRIRVRPPRLPRPRPRPVHRPRP,0.164
13,RRIRTRPPRLPRPRPRPQEIPRP,-0.187
14,RRIRPRPPRLPRPRPRPADSPRP,-0.0563
15,RRIRVRPPRLPRPRPRPLWGPRP,0.0188
16,RRIRVRPPRLPRPRPRPHNNPRP,-0.652
17,RRIRFRPPRLPRPRPRPHSSPRP,-0.194
18,RRIRDRPPRLPRPRPRPMGSPRP,0.00408
19,RRIRWRPPRLPRPRPRPHSFPRP,-0.266
20,RRIRSRPPRLPRPRPRPQQRPRP,0.153
21,RRIRRRPPRLPRPRPRPQMDPRP,-0.0632
22,RRIRFRPPRLPRPRPRPKAFPRP,0.133
23,RRIRSRPPRLPRPRPRPFNCPRP,-0.441
24,RRIRRRPPRLPRPRPRPLTIPRP,-0.133
25,RRIRARPPRLPRPRPRPTMKPRP,0.296

row,Sequence,shrunken log2 fold change
1,RRIRCRPPRLPRPRPRPVGKPRP,0.0374
2,RRIRHRPPRLPRPRPRPWNEPRP,-0.171
3,RRIRARPPRLPRPRPRPCTFPRP,-0.365
4,RRIRWRPPRLPRPRPRPLRYPRP,-0.0913
5,RRIRPRPPRLPRPRPRPSMKPRP,-0.223
6,RRIRTRPPRLPRPRPRPFQSPRP,0.00942
7,RRIRMRPPRLPRPRPRPPVPPRP,1.01
8,RRIRYRPPRLPRPRPRPMQQPRP,-0.0118
9,RRIRDRPPRLPRPRPRPQDAPRP,-0.103
10,RRIRGRPPRLPRPRPRPCLWPRP,0.426
11,RRIRHRPPRLPRPRPRPVVLPRP,-0.298
12,RRIRCRPPRLPRPRPRPGCSPRP,-0.182
13,RRIRDRPPRLPRPRPRPAQPPRP,0.278
14,RRIRYRPPRLPRPRPRPVFWPRP,0.11
15,RRIRPRPPRLPRPRPRPVKTPRP,0.0289
16,RRIRIRPPRLPRPRPRPTYNPRP,-0.783
17,RRIRIRPPRLPRPRPRPLWAPRP,-0.174
18,RRIRSRPPRLPRPRPRPSEMPRP,-0.114
19,RRIRNRPPRLPRPRPRPQNTPRP,-0.589
20,RRIRQRPPRLPRPRPRPKVNPRP,-0.0444
21,RRIRNRPPRLPRPRPRPMHCPRP,-0.0148
22,RRIRKRPPRLPRPRPRPLDMPRP,0.0395
23,RRIRYRPPRLPRPRPRPMIWPRP,-0.00195
24,RRIRYRPPRLPRPRPRPTILPRP,-0.521
25,RRIRRRPPRLPRPRPRPNTQPRP,0.0214

row,Sequence,shrunken log2 fold change
1,RRIRKRPPRLPRPRPRPICNPRP,0.102
2,RRIRVRPPRLPRPRPRPHRSPRP,-0.164
3,RRIRIRPPRLPRPRPRPCPGPRP,-0.372
4,RRIRDRPPRLPRPRPRPVQIPRP,-0.0711
5,RRIRERPPRLPRPRPRPYTAPRP,-0.662
6,RRIRWRPPRLPRPRPRPDEDPRP,0.299
7,RRIRSRPPRLPRPRPRPLCVPRP,-0.143
8,RRIRVRPPRLPRPRPRPSSNPRP,-0.375
9,RRIRLRPPRLPRPRPRPLYWPRP,-0.372
10,RRIRKRPPRLPRPRPRPSVVPRP,0.45
11,RRIRDRPPRLPRPRPRPSHCPRP,-0.29
12,RRIRFRPPRLPRPRPRPKVCPRP,0.0321
13,RRIRQRPPRLPRPRPRPHLGPRP,-0.00552
14,RRIRIRPPRLPRPRPRPHCLPRP,-0.104
15,RRIRCRPPRLPRPRPRPRMKPRP,0.0252
16,RRIRIRPPRLPRPRPRPSPVPRP,-0.297
17,RRIRKRPPRLPRPRPRPCHIPRP,-0.00879
18,RRIRHRPPRLPRPRPRPNLLPRP,-0.13
19,RRIRYRPPRLPRPRPRPEFRPRP,-0.0207
20,RRIRWRPPRLPRPRPRPGKGPRP,-0.0357
21,RRIRDRPPRLPRPRPRPKHYPRP,-0.491
22,RRIRTRPPRLPRPRPRPYTVPRP,-0.0341
23,RRIRFRPPRLPRPRPRPCKHPRP,-0.0872
24,RRIRSRPPRLPRPRPRPMDAPRP,-0.0809
25,RRIRKRPPRLPRPRPRPLQNPRP,0.551

row,Sequence,shrunken log2 fold change
1,RRIRYRPPRLPRPRPRPEFNPRP,-0.221
2,RRIRQRPPRLPRPRPRPVLYPRP,0.0138
3,RRIRVRPPRLPRPRPRPIENPRP,-0.229
4,RRIRSRPPRLPRPRPRPNWTPRP,-0.000246
5,RRIRSRPPRLPRPRPRPHRQPRP,0.114
6,RRIRQRPPRLPRPRPRPMFMPRP,-0.0688
7,RRIRRRPPRLPRPRPRPEMWPRP,1.14
8,RRIRTRPPRLPRPRPRPICMPRP,-0.348
9,RRIRGRPPRLPRPRPRPNCHPRP,0.415
10,RRIRWRPPRLPRPRPRPSLMPRP,0.122
11,RRIRHRPPRLPRPRPRPHCAPRP,-0.109
12,RRIRTRPPRLPRPRPRPLNYPRP,-0.415
13,RRIRVRPPRLPRPRPRPPHQPRP,0.0363
14,RRIRTRPPRLPRPRPRPSYTPRP,-0.761
15,RRIRKRPPRLPRPRPRPQMSPRP,-0.164
16,RRIRSRPPRLPRPRPRPAARPRP,0.247
17,RRIRPRPPRLPRPRPRPIVWPRP,0.0606
18,RRIRFRPPRLPRPRPRPYMPPRP,-1.09
19,RRIRDRPPRLPRPRPRPVKYPRP,-0.346
20,RRIRGRPPRLPRPRPRPPYAPRP,0.798
21,RRIRERPPRLPRPRPRPNNWPRP,-0.524
22,RRIRQRPPRLPRPRPRPMLVPRP,0.142
23,RRIRARPPRLPRPRPRPSKYPRP,-0.464
24,RRIRSRPPRLPRPRPRPHGMPRP,-0.21
25,RRIRHRPPRLPRPRPRPYFFPRP,-0.485

row,Sequence,shrunken log2 fold change
1,RRIRHRPPRLPRPRPRPHMFPRP,-0.358
2,RRIRWRPPRLPRPRPRPIRVPRP,0.0983
3,RRIRSRPPRLPRPRPRPHVWPRP,0.0587
4,RRIRCRPPRLPRPRPRPKSLPRP,-0.191
5,RRIRNRPPRLPRPRPRPRGAPRP,0.601
6,RRIRPRPPRLPRPRPRPEWVPRP,0.332
7,RRIRHRPPRLPRPRPRPHVWPRP,0.205
8,RRIRSRPPRLPRPRPRPQMYPRP,-0.159
9,RRIRVRPPRLPRPRPRPGAYPRP,-0.0376
10,RRIRHRPPRLPRPRPRPGTGPRP,-0.0184
11,RRIRIRPPRLPRPRPRPIMEPRP,-0.216
12,RRIRLRPPRLPRPRPRPWRRPRP,0.0451
13,RRIRKRPPRLPRPRPRPMFKPRP,-0.0779
14,RRIRARPPRLPRPRPRPAPHPRP,0.814
15,RRIRERPPRLPRPRPRPLFMPRP,-0.222
16,RRIRSRPPRLPRPRPRPAQCPRP,0.0899
17,RRIRPRPPRLPRPRPRPSRDPRP,-0.109
18,RRIRARPPRLPRPRPRPYSDPRP,-0.262
19,RRIRSRPPRLPRPRPRPCEHPRP,0.135
20,RRIRDRPPRLPRPRPRPSGEPRP,0.0799
21,RRIRLRPPRLPRPRPRPHKLPRP,-0.1
22,RRIRIRPPRLPRPRPRPAFTPRP,0.106
23,RRIRNRPPRLPRPRPRPHNPPRP,-0.143
24,RRIRSRPPRLPRPRPRPWIYPRP,-0.187
25,RRIRKRPPRLPRPRPRPHAIPRP,-0.142
